These results are taken from PMC7783346.

Where “and” joins values, the source holds several entries; their conditions need not be identical. Equal entries are not always repeated.

The target in series [1] is IncC of plasmid RA3 fused to CyaA T25 (BACTH) (plasmid RA3 (IncU), isolated from Aeromonas spp.). As to the kind of experiment: two-hybrid; bacterial adenylate cyclase two-hybrid (BACTH) in E. coli BTH101 cyaA; CyaA T18 and T25 fusions; MacConkey plates with 1% maltose and β-galactosidase assays in liquid cultures.
Series [2] has as its target KfrA of plasmid RA3, intact, fused to a CyaA fragment (BACTH) (plasmid RA3 (IncU), isolated from Aeromonas spp.). The series is described as above.
For series [3], the target named is KorB of plasmid RA3 fused to a CyaA fragment (BACTH) (plasmid RA3 (IncU), isolated from Aeromonas spp.). Described as above.
Series [4] deals with His6-KfrCRA3 labelled with RED-Tris-NTA (plasmid RA3 (IncU), isolated from Aeromonas spp.). As to the kind of experiment: MST; labelled His6-KfrC constant at 50 nM, KfrA from 500 nM to 0.0153 nM; 50 mM KPi pH 7.4, 300 mM NaCl, 0.05% Tween 20; measured at 37°C on Monolith NT.115; four independent experiments.
For series [5], the system named is His6-KfrA WT (plasmid RA3 (IncU; Aeromonas hydrophila in Fig S1/S3)). The experiment in a line: EMSA. The settings on record: EMSA: 50 mM Tris-HCl pH 8.0, 10 mM MgCl2, 50 mM NaCl, 37 C, 30 min, 10 nM EcoRI-NdeI-digested plasmid DNA (vector fragment as internal competitor), 20 ul …. (In EMSA bound probe runs differently from free probe, usually more slowly.)
The test system of series [6] is His6-KfrA178-355 (plasmid RA3 (IncU; Aeromonas hydrophila in Fig S1/S3)). The experiment in a line: EMSA. To be noted: EMSA: 50 mM Tris-HCl pH 8.0, 10 mM MgCl2, 50 mM NaCl, 37 C, 30 min, 10 nM EcoRI-NdeI-digested plasmid DNA (vector fragment as internal competitor), 20 ul ….

For the substance “KfrA of plasmid RA3, intact, fused to a CyaA fragment (BACTH) (natural protein)”, the β-galactosidase activity in series [1] is 136 U; in series [2], 4880 U and 5170 U; in series [3], 1970 U.
Broadly, the Kd is the constant that tells how readily two partners part at equilibrium. Substance “KfrARA3 with the His6 tag removed (natural protein)” registered a Kd in series [4] of 0.054 µM.
“KfrC of plasmid RA3, intact, fused to a CyaA fragment (BACTH) (natural protein)” registered a β-galactosidase activity in series [3] of 1010 U.
Take “WT OK (kfrAp), EcoRI-NdeI fragment of pESB2.68”: the K half in series [5] (OK variant series) was 240 nM; in series [5] (preparation used with Ala variants), 180 nM; in series [5] (preparation used with deletion variants, preparations ranged 0.18-0.32 uM), 320 nM; in series [6], 1700 nM.
In turn, pUC18 vector control fragment gave a K half in series [6] of 1000 nM.
